Data set [1] has as its target T1, human glucagon receptor (hGcg-R) (Homo sapiens, UniProt P47871).
T1 construct: expressed in transfected cells; host or cells: 293HEK cells, hygromycin-selected
The data set can be described thus: hGcg-R functional cAMP assay. Format: cell-based. Conditions: read-out: EC50 Gcg Receptor Assay.

Data set [2] can be described thus: Stability in co-formulation with GLP-1R agonist (SEC-HPLC, RP-HPLC). The format is physicochemical. Conditions: four weeks. Here is the method: Examples 1 and 3 are prepared and dialyzed against C6.5 (10 mM Citrate pH 6.5) using the same method as described above for preparation into T7 buffer. Compounds are formulated separately at 1 mg/mL peptide in buffer C6.5, C6.5M (10 mM Citrate, 46.4 mg/mL D-mannitol, pH 6.5), C6.5T (10 mM Citrate, 0.02% polysorbate-80, pH 6.5), and C6.5MT (10 mM Citrate, 46.4 mg/mL D-mannitol, 0.02% polysorbate-80, pH 6.5). A stock concentration of 46.5 mg/mL of dulaglutide in C6.5 is used to formulate dulaglutide at 3 mg/mL in C6.5 and C6.5MT. Co-formulations in C6.5MT are prepared having 3 mg/mL dulaglutide and 1 mg/mL Example 1, or 3 mg/mL dulaglutide and 1 mg/mL Example 3. Each formulated sample is transferred to three vials and maintained at 4° C., 25° C. and 40° C. Samples are assessed every two weeks for a total of four weeks. Samples are visually assessed for turbidity and phase separation. Stability is assessed by RP-HPLC and SEC-HPLC as described above. Both described HPLC methods give good separation of Example compounds and dulaglutide main peaks as well as all degradation peaks produced by stressing the sample at pH 9 and 40° C. for 3 days.
(In general: SEC sorts molecules by how far they enter the pores of the column.)

For data set [3], the target named is T2, glucose-dependent insulinotropic polypeptide receptor, hGIP-R (Homo sapiens, UniProt P48546).
T2 sequence (P48546 22-466): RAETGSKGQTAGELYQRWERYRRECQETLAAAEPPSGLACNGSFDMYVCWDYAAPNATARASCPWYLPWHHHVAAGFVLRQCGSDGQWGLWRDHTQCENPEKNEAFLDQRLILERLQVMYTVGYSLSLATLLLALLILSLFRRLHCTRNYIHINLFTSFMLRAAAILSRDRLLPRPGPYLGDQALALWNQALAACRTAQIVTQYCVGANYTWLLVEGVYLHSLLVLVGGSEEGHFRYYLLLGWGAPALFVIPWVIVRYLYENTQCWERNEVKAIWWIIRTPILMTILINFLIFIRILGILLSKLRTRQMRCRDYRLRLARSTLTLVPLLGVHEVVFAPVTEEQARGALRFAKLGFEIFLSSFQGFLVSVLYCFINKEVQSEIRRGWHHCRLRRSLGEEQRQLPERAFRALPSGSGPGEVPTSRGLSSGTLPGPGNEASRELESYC
The experiment in a line: hGIP-R functional cAMP assay. The settings on record: read-out: EC50 GIP Receptor Assay. (cAMP levels reflect the balance of adenylyl cyclase and phosphodiesterase activity.)
Procedure: (§1) The hGIP-R functional assay uses hGIP-R (Usdin, T. B., Gruber, C., Modi, W. and Bonner, T. I., GenBank: AAA84418.1) cloned into pcDNA3.1 (Promega)-NeoR plasmid. The hGIP-R-pcDNA3.1/Neo plasmid is transfected into Chinese Hamster Ovary cells, CHO-S, for suspension cultures and selected in the presence of 500 μg/mL Geneticin (Invitrogen).

Data set [4] has as its target human Glucagon-Like Peptide-1 receptor (hGLP-1-R) (Homo sapiens, UniProt P43220). The data set can be described thus: hGLP-1-R functional cAMP assay. The settings on record: read-out: EC50 GLP-1 Receptor Assay.
Procedure: as §1

Where two headings read alike, the source gives them in different places.

1 substance from patent publication US9884093B2 (Eli Lilly and Company, priority 2015, dated 2018) can be followed below.

As usually defined, the EC50 is the concentration giving half of the maximal effect.

Sequence of human Glucagon-Like Peptide-1 receptor (hGLP-1-R) (P43220 24-463): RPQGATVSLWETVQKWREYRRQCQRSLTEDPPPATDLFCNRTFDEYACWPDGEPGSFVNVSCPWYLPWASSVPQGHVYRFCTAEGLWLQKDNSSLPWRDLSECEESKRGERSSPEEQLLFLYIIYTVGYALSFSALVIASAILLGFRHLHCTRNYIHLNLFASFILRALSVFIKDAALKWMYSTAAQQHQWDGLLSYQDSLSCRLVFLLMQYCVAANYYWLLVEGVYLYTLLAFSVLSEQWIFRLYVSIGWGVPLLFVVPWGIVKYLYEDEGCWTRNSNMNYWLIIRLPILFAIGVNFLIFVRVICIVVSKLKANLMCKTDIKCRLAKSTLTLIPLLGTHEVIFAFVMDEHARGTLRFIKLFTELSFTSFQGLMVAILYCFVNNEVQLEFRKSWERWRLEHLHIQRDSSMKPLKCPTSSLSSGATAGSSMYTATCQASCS
T1 sequence (P47871 26-477): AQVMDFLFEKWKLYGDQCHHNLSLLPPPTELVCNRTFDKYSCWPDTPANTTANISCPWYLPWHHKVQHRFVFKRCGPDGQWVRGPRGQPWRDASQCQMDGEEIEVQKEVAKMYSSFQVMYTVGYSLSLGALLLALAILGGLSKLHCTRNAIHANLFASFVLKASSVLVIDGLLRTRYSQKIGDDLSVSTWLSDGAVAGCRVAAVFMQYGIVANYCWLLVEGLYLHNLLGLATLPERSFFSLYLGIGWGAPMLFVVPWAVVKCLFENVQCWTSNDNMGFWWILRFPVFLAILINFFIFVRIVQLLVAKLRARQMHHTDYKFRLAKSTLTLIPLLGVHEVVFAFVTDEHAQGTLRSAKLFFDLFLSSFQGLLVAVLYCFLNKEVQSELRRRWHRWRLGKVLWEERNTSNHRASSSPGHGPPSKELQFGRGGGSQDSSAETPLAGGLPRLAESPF

dulaglutide: the EC50 in data set [1] (sample C6.5-4 C.-4 wk) was 51.9 ± 68.1 nM; in data set [1] (sample C6.5-40 C.-4 wk), greater than 100 nM; in data set [1] (sample C6.5MT-4 C.-4 wk), 54 ± 65 nM; in data set [1] (sample C6.5MT-40 C.-4 wk) it was greater than 100 nM; in data set [3] (sample C6.5-4 C.-4 wk) it was greater than 100 nM; in data set [3] (sample C6.5-40 C.-4 wk) it was greater than 100 nM. Further, the EC50 in data set [3] (sample C6.5MT-4 C.-4 wk) is greater than 100 nM; in data set [3] (sample C6.5MT-40 C.-4 wk), greater than 100 nM; in data set [4] (sample C6.5-4 C.-4 wk), 0.37 ± 0.11 nM; in data set [4] (sample C6.5-40 C.-4 wk), 0.31 ± 0.17 nM; in data set [4] (sample C6.5MT-4 C.-4 wk), 0.4 ± 0.14 nM; in data set [4] (sample C6.5MT-40 C.-4 wk) it was 0.29 ± 0.09 nM. For the same substance, the “GLP-1-Fc Δ % Main Peak” value in data set [2] (RP-HPLC, C6.5, 4° C.) was −1.45%; in data set [2] (RP-HPLC, C6.5, 25° C.) it was greater than −10%; in data set [2] (RP-HPLC, C6.5, 40° C.), −9.96%; in data set [2] (RP-HPLC, C6.5MT, 4° C.), −0.46%; in data set [2] (RP-HPLC, C6.5MT, 25° C.), −0.8%; in data set [2] (RP-HPLC, C6.5MT, 40° C.), −7.47%. Moreover, the “GLP-1-Fc Δ % Main Peak” value in data set [2] (SEC-HPLC, C6.5, 4° C.) is recorded as 0.19%; in data set [2] (SEC-HPLC, C6.5, 25° C.), −0.54%; in data set [2] (SEC-HPLC, C6.5, 40° C.) it was greater than −10%; in data set [2] (SEC-HPLC, C6.5MT, 4° C.), 0.29%; in data set [2] (SEC-HPLC, C6.5MT, 25° C.), −0.87%; in data set [2] (SEC-HPLC, C6.5MT, 40° C.), −0.83%.
